According to patent US20230019640A1 (Janssen / Centocor, published 2023):

B1: VHH2 - linker-mono-Fc protein (Fc fusion)
chain: EVQVVESGGGLVQAGGSLKLACAAPGLTFSSYRMGWFRQAPGQEREFVAAIDWNGRGTYYRYYADSVKGRSTISRDNAKNTVYLQMNSLKPEDTAVYYCAATTVLTDPRVLNEYATWGQGTQVTVSSEPKTPKPQPQPQLQPQPNPTTESKSPKSPAPELLGGPSVFLFPPKPKDTLMISRTPEVTCVVVDVSHEDPEVKFNWYVDGVEVHNAKTKPREEQYNSTYRVVSVLTVLHQDWLNGKEYKCKVSNKALPAPIEKTISKAKGQPREPQVYTKPPSREEMTKNQVSLSCLVKGFYPSDIAVEWESNGQPENNYKTTVPVLDSDGSFRLASYLTVDKSRWQQGNVFSCSVMHEALHNHYTQKSLSLSPGK
notes: also called VHH2-mono-Fc; mpIgR_338
B2: VHH3 - linker-mono-Fc protein (Fc fusion)
chain: QLQLVESGGGLVQPGGSLRLSCAASGSIFSINVMGWYRQAPGKQRELVARINGGGITHYAESVKGRFTISRDNAKNTVYLQMNSLKPEDTAAYYCKADVFGSSGYVETYWGQGTQVTVSSEPKTPKPQPQPQLQPQPNPTTESKSPKSPAPELLGGPSVFLFPPKPKDTLMISRTPEVTCVVVDVSHEDPEVKFNWYVDGVEVHNAKTKPREEQYNSTYRVVSVLTVLHQDWLNGKEYKCKVSNKALPAPIEKTISKAKGQPREPQVYTKPPSREEMTKNQVSLSCLVKGFYPSDIAVEWESNGQPENNYKTTVPVLDSDGSFRLASYLTVDKSRWQQGNVFSCSVMHEALHNHYTQKSLSLSPGK
notes: also called VHH3-mono-Fc; hpIgR_021

Biological target: T1, mouse pIgR extracellular domain (ECD) (mouse, UniProt O70570 19-645)
T1 construct: The entry ends with a C-terminal HHHHHH tag; also called mpIgR; mpIgR ectodomain
T1 sequence: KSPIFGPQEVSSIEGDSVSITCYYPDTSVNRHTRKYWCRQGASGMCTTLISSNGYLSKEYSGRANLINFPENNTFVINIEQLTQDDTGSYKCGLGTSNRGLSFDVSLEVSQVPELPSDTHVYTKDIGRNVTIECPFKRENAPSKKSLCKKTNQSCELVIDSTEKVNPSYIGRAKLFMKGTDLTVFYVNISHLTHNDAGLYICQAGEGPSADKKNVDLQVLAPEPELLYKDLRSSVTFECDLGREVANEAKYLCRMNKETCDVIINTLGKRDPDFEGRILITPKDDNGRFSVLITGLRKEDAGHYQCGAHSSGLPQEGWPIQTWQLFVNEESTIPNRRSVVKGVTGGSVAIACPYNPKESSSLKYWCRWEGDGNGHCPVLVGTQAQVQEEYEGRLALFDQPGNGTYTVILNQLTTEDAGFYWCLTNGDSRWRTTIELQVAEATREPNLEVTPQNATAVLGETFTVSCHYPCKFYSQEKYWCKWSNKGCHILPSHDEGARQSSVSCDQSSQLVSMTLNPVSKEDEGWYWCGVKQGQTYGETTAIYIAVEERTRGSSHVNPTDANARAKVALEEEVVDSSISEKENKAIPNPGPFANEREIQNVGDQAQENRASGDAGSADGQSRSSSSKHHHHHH
Experiment: not named on the sheet

| Binder | binding result |
| --- | --- |
| B1 | binds |
| B2 | binds |
